Numbering of substitutions follows the chain as printed. Names may count otherwise. “And” between values parts separate entries of the source, which are not always exact repeats. Equal values may be shown once.
B1: P1-065326 (41F11_VH_D31E/Y50W/S55E/L96E/Y100E VK_A64G) (antibody, V domains shown)
VH: QVQLVESGGGLVKPGGSLRLSCAASGFTFSEYYMSWIRQAPGKGLEWVSWISNSGEPIYYADSVKGRFTISRDNAKNSLYLQMNSLRAEDTAVYYCARDEPGWEFDLWGRGTLVTVSS
VL: EIVLTQSPATLSLSPGERATLSCRASQSVSSYLAWYQQKPGQAPRLLIYDASNRATGIPARFSGSGSGTDFTLTISSLEPEDFAVYYCQQRNNWPRTFGQGTKVEIK
notes: Kabat positions; also called P1-065326-1
B2: VISTA.4 A64G (41F11 Vk:A64G) (antibody, human IgG1, kappa, V domains shown)
VH: B1 VH with E31D, W50Y, E56S, E100L, E104Y
VL: EIVLTQSPATLSLSPGERATLSCRASQSVSSYLAWYQQKPGQAPRLLIYDASNRATGIPARFSGSGSGTDFTLTISSLEPEDFAVYYCQQRNNWPRTFGQGTKVEIKR
notes: IgG1.3; also called P1-061520; P1-061520-10
B3: P1-065333 (41F11_VH_T28P/Y50W/S55E/L96E/Y100E VK_A64G) (antibody, human IgG1, kappa, V domains shown)
VH: B1 VH with T28P, E31D
VL: B2 VL
notes: IgG1.3; also called P1-065333-1; VISTA.4 pH-independent progeny
B4: P1-071801 (P1-070976_E97P) (antibody, human IgG1, kappa, V domains shown)
VH: B1 VH with T28P, E31D, D99H
VL: B2 VL
notes: IgG1.3
B5: P1-071799 (P1-070976_H95D) (antibody, human IgG1, kappa, V domains shown)
VH: B1 VH with T28P, E31D, P101E
VL: B2 VL
notes: IgG1.3

Assays:
[1] = target: T1, monovalent hVISTA-ECD (human VISTA extracellular domain with His tail) (human, UniProt Q9H7M9 33-193); experiment: SPR
T1 construct: analyte flowed over captured antibody; also called huVISTA-His
Protocol: (§1) Binding of several preparations of each of the '029 progeny clones and of the parent '029 antibodies, formatted as IgG1.3 antibodies, to human VISTA at pH 6.0 and 7.4 was measured by Surface plasmon resonance (SPR). SPR analysis was performed to measure koff and KD binding affinity measurements for VISTA Abs at acidic and neutral pHs using a Biacore® T100 instrument (GE Healthcare). Protein A (ThermoFisher Scientific catalog #21181) was diluted to 20 ug/ml in 10 mM sodium acetate pH 4.5 and immobilized onto flow cells of a CM5 biosensor following the manufacturer's amine coupling protocol (GE Healthcare), targeting 2,000 RU immobilization density of Protein A per flow cell. SPR experiments were conducted at 37° C. using PBST (137 mM sodium chloride, 2.7 mM potassium chloride, 10 mM phosphate buffer, 0.05% Tween® 20) running buffer at pH 7.4 and 6.0. Antibodies were diluted to 25 nM in PBST pH 7.4, and were captured across active biosensor flow cells at 5 ul/min for 60 seconds. […] Two 15 second injections of 10 mM glycine pH 1.5 were used to regenerate the Protein A capture surface between assay cycles. Rate constants ka (kₒₙ) and kd (koff) were derived from reference flow cell and 0 nM blank-subtracted sensorgrams, and were fit to a 1:1 binding model in Biacore® T200 Evaluation Software v.2.0. The affinity constant, KD was calculated as the ratio of rate constants koff/kₒₙ for each VISTA antibody. […]

[2] = target: T1, monovalent hVISTA-ECD (human VISTA …); experiment: SPR; remark: listed apart in the source
Protocol: (§2) Binding of several preparations of each of the '029 progeny clones and of the parent '029 antibodies, formatted as IgG1.3 antibodies, to human VISTA at pH 6.0 and 7.4 was measured by Surface plasmon resonance (SPR). SPR analysis was performed to measure koff and KD binding affinity measurements for VISTA Abs at acidic and neutral pHs using a Biacore® T100 instrument (GE Healthcare). Protein A (ThermoFisher Scientific catalog #21181) was diluted to 20 ug/ml in 10 mM sodium acetate pH 4.5 and immobilized onto flow cells of a CM5 biosensor following the manufacturer's amine coupling protocol (GE Healthcare), targeting 2,000 RU immobilization density of Protein A per flow cell. SPR experiments were conducted at 37° C. using PBST (137 mM sodium chloride, 2.7 mM potassium chloride, 10 mM phosphate buffer, 0.05% Tween® 20) running buffer at pH 7.4 and 6.0. Antibodies were diluted to 25 nM in PBST pH 7.4, and were captured across active biosensor flow cells at 5 ul/min for 60 seconds. […] Two 15 second injections of 10 mM glycine pH 1.5 were used to regenerate the Protein A capture surface between assay cycles. Rate constants ka (kₒₙ) and kd (koff) were derived from reference flow cell and 0 nM blank-subtracted sensorgrams, and were fit to a 1:1 binding model in Biacore® T200 Evaluation Software v.2.0. The affinity constant, KD was calculated as the ratio of rate constants koff/kₒₙ for each VISTA antibody.

[3] = target: T1, monovalent hVISTA-ECD (human VISTA …); experiment: SPR, pH 6.0
Protocol: as §1

[4] = target: T1, monovalent hVISTA-ECD (human VISTA …); experiment: SPR, pH 7.4
Protocol: as §1

[5] = target: T1, monovalent hVISTA-ECD (human VISTA …); experiment: SPR, pH 6.0; remark: listed apart in the source
Protocol: as §2

[6] = target: T1, monovalent hVISTA-ECD (human VISTA …); experiment: SPR, pH 7.4; remark: listed apart in the source
Protocol: as §2

[7] = target: T1, monovalent hVISTA-ECD (human VISTA …); experiment: SPR, pH 6.0; remark: listed apart in the source
Protocol: as §2
(§3) This initial campaign led to pH-independent VISTA.4 variants with near equivalent koff at pH 6 and pH 7. In order to obtain an antibody that binds to hVISTA with high affinity at pH 6.0 and low affinity at pH 7.0, a new library based on consensus sequence of pH-independent VISTA.4 variants was designed and constructed, with amino acid residues in the loops substituted for charge amino acid residues (see Example 9), and screened via yeast surface display (see Example 9). The library was analyzed as previously described (see Example 9) and selected variants were reformatted as IgG1.3 for further analysis (Tables 26 and 27). SPR analysis was conducted on these variants using the conditions previously described in Example 9.

[8] = target: T1, monovalent hVISTA-ECD (human VISTA …); experiment: SPR, pH 7.4; remark: listed apart in the source
Protocol: as §2, §3

[9] = target: T1, monovalent hVISTA-ECD (human VISTA …); experiment: SPR, pH 6.0, average
Protocol: as §1

[10] = target: T1, monovalent hVISTA-ECD (human VISTA …); experiment: SPR, pH 7.4, average
Protocol: as §2
Some of the VISTA.4 mutants described above and new mutants were tested for binding to hVISTA, according to the methods described in Example 9. […] Antibody 41F11_VH_T28P/Y50W/S55E/D95H/L96E/P97E/Y100E; VK_A64G (P1-070976) is the only VISTA.4 derivative that is pH selective.

Binder | KD ratio (pH 7.4/pH 6.0) [1] | pH 6.0/7.4 KD [2] | Kd [3] | koff [3] | kon [3] | Kd [4] | koff [4] | kon [4] | Kd [7] [nM] | koff [7] [s⁻¹] | kon [7] [M⁻¹ s⁻¹] | Kd [8] [nM] | koff [8] [s⁻¹] | kon [8] [M⁻¹ s⁻¹] | Kd [9] [nM] | koff [9] [s⁻¹] | kon [9] [M⁻¹ s⁻¹] | Kd [10] [nM] | koff [10] [s⁻¹] | kon [10] [M⁻¹ s⁻¹] | also measured
B1 | 5.73 | 0.2 | 0.172 nM | 0.000603 s⁻¹ | 3.52e+06 M⁻¹ s⁻¹ | 0.986 nM | 0.000285 s⁻¹ | 289000 M⁻¹ s⁻¹ | 0.21 | 0.00051 | 2.4e+06 | 0.72 | 0.00032 | 450000 | – | – | – | – | – | – | pH 6.0/7.4 kd [2]: 1.1; Kd [5]: 0.12 nM; kd improvement vs parent [5]: 294 fold; koff [5]: 0.00036 s⁻¹; kon [5]: 2.9e+06 M⁻¹ s⁻¹; Kd [6]: 0.76 nM; kd improvement vs parent [6]: 2.7 fold; koff [6]: 0.00033 s⁻¹; kon [6]: 440000 M⁻¹ s⁻¹
B2 | – | – | 17.4 nM and 16.6 nM | 0.0403 s⁻¹ and 0.0395 s⁻¹ | 2.31e+06 M⁻¹ s⁻¹ and 2.37e+06 M⁻¹ s⁻¹ | 4.48 nM and 4.19 nM | 0.00103 s⁻¹ and 0.00105 s⁻¹ | 231000 M⁻¹ s⁻¹ and 250000 M⁻¹ s⁻¹ | 38 | 0.086 | 2.3e+06 | 1.7 | 0.00093 | 550000 | 40 | 0.033 | 830000 | 4 | 0.00091 | 230000 | –
B3 | 7.3 | 0.2 | 0.434 nM | 0.00142 s⁻¹ | 3.28e+06 M⁻¹ s⁻¹ | 3.17 nM | 0.000883 s⁻¹ | 278000 M⁻¹ s⁻¹ | 0.47 | 0.0018 | 3.8e+06 | 2.2 | 0.00094 | 430000 | 0.56 | 0.0015 | 2.7e+06 | 3.2 | 0.00078 | 240000 | pH 6.0/7.4 kd [2]: 1.4; Kd [5]: 0.38 nM; kd improvement vs parent [5]: 81.7 fold; koff [5]: 0.0013 s⁻¹; kon [5]: 3.4e+06 M⁻¹ s⁻¹; Kd [6]: 1.9 nM; kd improvement vs parent [6]: 1 fold; koff [6]: 0.00093 s⁻¹; kon [6]: 480000 M⁻¹ s⁻¹
B4 | – | – | – | – | – | – | – | – | – | – | – | – | – | – | 3.5 | 0.0016 | 460000 | 21 | 0.00061 | 29000 | –
B5 | – | – | – | – | – | – | – | – | – | – | – | – | – | – | 15 | 0.027 | 1.7e+06 | – | – | – | –

Source: patent US20220073617A1 (Five Prime, published 2022)
